Results reported in PMC11077437.

Key:
[1] = target: T1, human CS1 on CS1pos OPM2 multiple myeloma cells (human (endogenous in OPM2)) (UniProt Q9NQ25)
T1 sequence: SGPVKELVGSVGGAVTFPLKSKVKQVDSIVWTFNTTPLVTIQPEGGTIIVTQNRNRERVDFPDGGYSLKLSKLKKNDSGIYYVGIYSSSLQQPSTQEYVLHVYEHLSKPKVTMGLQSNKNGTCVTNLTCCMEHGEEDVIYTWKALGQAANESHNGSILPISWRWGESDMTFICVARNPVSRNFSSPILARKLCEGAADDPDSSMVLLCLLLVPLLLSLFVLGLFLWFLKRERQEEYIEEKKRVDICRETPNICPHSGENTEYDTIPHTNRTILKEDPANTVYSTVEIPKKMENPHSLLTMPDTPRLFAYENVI

[2] = target: T2, recombinant human CS1 protein (CS1-(his)C) (human) (UniProt Q9NQ25); assay: SPR; Biacore T200; recombinant CS1 amine-coupled on a CM5 chip; VHH 100 nM to 3.125 nM in HBS pH 7.4, 25°C; association 180 s, dissociation 300 s; fit '1:1 binding with drift and RI2'; n=1
T2 sequence: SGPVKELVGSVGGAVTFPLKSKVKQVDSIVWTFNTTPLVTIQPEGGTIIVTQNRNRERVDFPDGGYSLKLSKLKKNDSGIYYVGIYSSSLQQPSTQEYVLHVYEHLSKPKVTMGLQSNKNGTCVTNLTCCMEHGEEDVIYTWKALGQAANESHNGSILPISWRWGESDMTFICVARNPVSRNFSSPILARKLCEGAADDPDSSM

[3] = target: T1, human CS1 on CS1pos OPM2 multiple myeloma cells (human (endogenous in OPM2)); assay: flow cytometry on cells; purified VHH at 200 nM, 1 h at 4°C, on CS1pos OPM2 cells; detected by mouse anti-His IgG1 mAb and APC anti-mouse IgG1 mAb; ΔMFI against the non-targeting control VHH R3B23 at 200 nM; n=1

B1: VHH-2 (VHH)
VHH: DVQLVESGGGLVQPGDSLRLSCTASGRTFENNFMGWFRQPPGKEREFVAAVGWNTGRGYYTDSVKGRFTISRDSAKNTVYLQMNSLKPEDTAVYSCNAPLQSLDRRLPGPYWGQGTQVTVSS
- tumor uptake of the 99mTc-labelled VHH in subcutaneous CS1pos OPM2 tumors in mice, ex vivo at 90 min p.i. (n=3) [1]: 0.48 % IA/g
- Kd [2]: 49.7 nM
- koff [2]: 0.0318 s⁻¹
- kon [2]: 641000 M⁻¹ s⁻¹
- ΔMFI [VHH] = 200 nM [3]: 6.09
